{
  "source": "patent US20120100582A1",
  "about": "(DSM IP ASSETS B V, published 2012)",
  "data": [
    {"molecular_target": "the molecule itself", "assay": "blue native gel electrophoresis, self-association", "description": "Blue native gel electrophoresis (BN-PAGE) of bacterial lysates containing APLE was performed according to the method described by Reisinger and Eichacker (2006), “Analysis of membrane protein complexes by blue native PAGE”, Proteomics 6 Suppl 2, 6-15, with the following modifications. Aliquots containing 200 μg of soluble proteins were diluted with 10 mM Tris/HCl pH 7.4 to a final volume of 95 μl. Five μl of loading buffer was added to the sample before applying them on an 8-16% linear gradient gel. Gradient gels (16×20 cm) were created with the help of a Bio-Rad Gradient Former model 485 (Bio-Rad Laboratories, Vienna, Austria). Electrophoresis was performed at a constant current of 24 mA per gel at 4° C. After electrophoresis, gels were incubated in 0.1 M potassium phosphate buffer, pH 7.0, for 20 min at room temperature. For the in-gel-detection of esterase activity, the substrate fluorescein diacetate (FDA) was dissolved in acetone [4 mg/ml] and applied on a Biodyne® A membrane ([…], 16×20 cm) (Pall Life Science, Michigan, USA). After evaporation of acetone, the membrane was brought in close contact with the gel which was placed on a glass plate. The gel-membrane sandwich was incubated at 37° C. for 30 min before detection of fluorescent bands.\nEsterase activity was visualized herein through staining with fluorescein resulting from hydrolysis of fluorescein diacetate (FDA). All 7 wild-type enzymes are trimers of about the same height on the native gel, whereas the V263D mutants show bands on the lower third of the gel. Multiple bands were excised and analyzed on an SDS-PAGE gel. Multiple bands result in one clear band at the size of about 58 kDa (data not shown). It is assumed that these bands result from different conformations of the same monomer.", "values": [
      {"protein": "APLE with V263D mutation (enzyme, Monomeric mutant, tested in E. coli cleared lysate; also called APLE-V263D; mutant, monomeric APLE) GQPASPPVVDTAQGRVLGKYVSLEGLAQPVAVFLGVPFAKPPLGSLRFAPPQPAEPWSFVKNTTSYPPMCCQEPIGGQMLSDLFTNRKERLIPEFSEDCLYLNIYTPADLTKRGRLPVMVWIHGGGLVVGGASTYDGLALAAHENVVVVAIQYRLGIWGFFSTGDEHSRGNWGHLDQVAALHWVQENIANFGGDPGSVTIFGESAGGESVSVLVLSPLAKNLFHRAISESGVAFTAGLVRKDMKAAAKQIAVLAGCKTTTSADFVHCLRQKSEDELLDLTLKMKFFALDLHGDPRESHPFLTTVVDGVLLPKMPEEILAEKDFNTVPYIVGINKQEFGWLLPTMMGFPLSEGKLDQKTATSLLWKSYPIANIPEELTPVATDKYLGGTDDPVKKKDLFLDLMGDVVFGVPSVTVARQHRDAGAPTYMYEFQYRPSFSSDKKPKTVIGDHGDEIFSVFGFPLLKGDAPEEEVSLSKTVMKFWANFARSGNPNGEGLPHWPMYDQEEGYLQIGVNTQAAKRLKGEEVAFWNDLLSKEAAKKPPKIKHAEL", "binding result": "no binding"},
      {"protein": "γ-PLE with V263D mutation (enzyme, Monomeric mutant; also called γPLE-V263D) GQPASPPVVDTAQGRVLGKYVSLEGLAQPVAVFLGVPFAKPPLGSLRFAPPQPAEPWSFVKNTTSYPPMCCQDPVVEQMTSDLFTNGKERLTLEFSEDCLYLNIYTPADLTKRGRLPVMVWIHGGGLVLGGAPMYDGVVLAAHENVVVVAIQYRLGIWGFFSTGDEHSRGNWGHLDQVAALHWVQENIANFGGDPGSVTIFGESAGGESVSVLVLSPLAKNLFHRAISESGVALTVALVRKDMKAAAKQIAVLAGCKTTTSADFVHCLRQKSEDELLDLTLKMKFLTLDFHGDQRESHPFLPTVVDGVLLPKMPEEILAEKDFNTVPYIVGINKQEFGWLLPTMMGFPLSEGKLDQKTATSLLWKSYPIANIPEELTPVATDKYLGGTDDPVKKKDLFLDLMGDVVFGVPSVTVARQHRDAGAPTYMYEFQYRPSFSSDKKPKTVIGDHGDEIFSVFGFPLLKGDAPEEEVSLSKTVMKFWANFARSGNPNGEGLPHWPMYDQEEGYLQIGVNTQAAKRLKGEEVAFWNDLLSKEAAKKPPKIKHAEL", "binding result": "no binding"},
      {"protein": "PICE with V263D mutation (enzyme, Monomeric mutant; also called PICE-V263D) GQPASPPVVDTAQGRVLGKYVSLEGLAQPVAVFLGVPFAKPPLGSLRFAPPQPAEPWSFVKNTTSYPPMCCQDPVAGQMTSDLFTNGKERLIPEFSEDCLYLNIYTPADLTKRGRLPVMVWIHGGGLVVGGASTYDGLALAAHENVVVVAIQYRLGIWGFFSTGDEHSRGNWGHLDQVAALHWVQENIANFGGDTGSVTIFGESAGGESVSVLVLSPLAKNLFHRAISESGVALTAGLVRKDMKAAAKQIAVLAGCKTTTSADFVHCLRQKSEDELLDLTLKMKFLTLDLHGDPRESHPFLPTVVDGVLLPKMPEEILAEKDFNTVPYIVGINKQEFGWLLPTMMGFPLSEGKLDQKTATSLLWKSFPITNIPEELTPVATDKYLGGTDDPVKKKDLFLDLMGDVVFGVPSVTVARQHRDAGAPTYMYEFQYRPSFSSDKKPKTVIGDHGDEIFSVFGFPLLKGDAPEEEVSLSKTVMKFWANFARSGNPNGEGLPHWPMYDQEEGYLQIGVNTQAAKRLKGEEVAFWNDLLSKEAAKKPPKIKHAEL", "binding result": "no binding"},
      {"protein": "PLE2 with V263D mutation (enzyme, Monomeric mutant; also called PLE2-V263D) GQPASPPVVDTAQGRVLGKYVSLEGLAQPVAVFLGVPFAKPPLGSLRFAPPQPAEPWSFVKNTTSYPPMCCQDPVVEQMTSDLFTNGKERLTLEFSEDCLYLNIYTPADLTKRGRLPVMVWIHGGGLVLGGAPMYDGVVLAAHENVVVVAIQYRLGIWGFFSTGDEHSRGNWGHLDQVAALHWVQENIANFGGDPGSVTIFGESAGGESVSVLVLSPLAKNLFHRAISESGVALTVALVRKDMKAAAKQIAVLAGCKTTTSADFVHCLRQKSEDELLDLTLKMKFLTLDFHGDQRESHPFLPTVVDGVLLPKMPEEILAEKDFNTVPYIVGINKQEFGWLLPTMMGFPLSEGKLDQKTATSLLWKSYPIANIPEELTPVATDKYLGGTDDPVKKKDLFLDLMGDVVFGVPSVTVARQHRDAGAPTYMYEFQYRPSFSSDKKPKTVIGDHGDEIFSVFGAPFLRGDAPEEEVSLSKTVMKFWANFARSGNPNGEGLPHWPMYDQEEGYLQIGVNTQAAKRLKGEEVAFWNDLLSKEAAKKPPKIKHAEL", "binding result": "no binding"},
      {"protein": "PLE3 with V263D mutation (enzyme, Monomeric mutant; also called PLE3-V263D) GQPASPPVVDTAQGRVLGKYVSLEGLAQPVAVFLGVPFAKPPLGSLRFAPPQPAEPWSFVKNTTSYPPMCCQEPIGGQMLSDLFTNRKERLIPEFSEDCLYLNIYTPADLTKRGRLPVMVWIHGGGLVVGGASTYDGLALAAHENVVVVAIQYRLGIWGFFSTGDEHSRGNWGHLDQVAALHWVQENIANFGGDPGSVTIFGESAGGESVSVLVLSPLAKNLFHRAISESGVAFTAGLVRKDMKAAAKQIAVLAGCKTTTSADFVHCLRQKSEDELLDLTLKMKPLTLDLHGDPRESHPFLTTVVDGVLLPKMPEEILAEKDFNTVPYIVGINKQEFGWLLPTMMGFPLSEGKLDQKTATSLLWKSYPIANIPEELTPVATDKYLGGTDDPVKKKDLFLDLMGDVVFGVPSVTVARQHRDAGAPTYMYEFQYRPSFSSDKKPKTVIGDHGDEIFSVFGFPLLKGDAPEEEVSLSKTVMKFWANFARSGNPNGEGLPHWPMYDQEEGYLQIGVNTQAAKRLKGEEVAFWNDLLSKEAAKKPPKIKHAEL", "binding result": "no binding"},
      {"protein": "PLE4 with V263D mutation (enzyme, Monomeric mutant; also called PLE4-V263D) GQPASPPVVDTAQGRVLGKYVSLEGLAQPVAVFLGVPFAKPPLGSLRFAPPQPAEPWSFVKNTTSYPPMCCQDPVAGQMTSDLFTNGKERLIPEFSEDCLYLNIYTPADLTKRGRLPVMVWIHGGGLVVGGASTYDGLALAAHENVVVVAIQYRLGIWGFFSTGDEHSRGNWGHLDQVAALHWVQENIANFGGDPGSVTIFGESAGGESVSVLVLSPLAKNLFHRAISESGVAFTAGLVRKDMKAAAKQIAVLAGCKTTTSADFVHCLRQKSEDELLDLTLKMKPLTLDLHGDPRESHPFLTTVVDGVLLPKMPEEILAEKDFNTVPYIVGINKQEFGWLLPTMMGFPLSEGKLDQKTATSLLWKSYPIANIPEELTPVATDKYLGGTDDPVKKKDLFLDLMGDVVFGVPSVTVARQHRDAGAPTYMYEFQYRPSFSSDKKPKTVIGDHGDEIFSVFGAPFLRGDAPEEEVSLSKTVMKFWANFARSGNPNGEGLPHWPMYDQEEGYLQIGVNTQAAKRLKGEEVAFWNDLLSKEAAKKPPKIKHAEL", "binding result": "no binding"},
      {"protein": "PLE5 with V263D mutation (enzyme, Monomeric mutant; also called PLE5-V263D) GQPASPPVVDTAQGRVLGKYVSLEGLAQPVAVFLGVPFAKPPLGSLRFAPPQPAEPWSFVKNTTSYPPMCCQDPVAGQMTSDLFTNGKERLIPEFSEDCLYLNIYTPADLTKRGRLPVMVWIHGGGLVVGGASTYDGLALAAHENVVVVAIQYRLGIWGFFSTGDEHSRGNWGHLDQVAALHWVQENIANFGGDPGSVTIFGESAGGESVSVLVLSPLAKNLFHRAISESGVAFTAGLVRKDMKAAAKQIAVLAGCKTTTSADFVHCLRQKSEDELLDLTLKMKFFALDLHGDPRESHPFLTTVVDGVLLPKMPEEILAEKDFNTVPYIVGINKQEFGWLLPTMMGFPLSEGKLDQKTATSLLWKSYPIANIPEELTPVATDKYLGGTDDPVKKKDLFLDLMGDVVFGVPSVTVARQHRDAGAPTYMYEFQYRPSFSSDKKPKTVIGDHGDEIFSVFGAPFLRGDAPEEEVSLSKTVMKFWANFARSGNPNGEGLPHWPMYDQEEGYLQIGVNTQAAKRLKGEEVAFWNDLLSKEAAKKPPKIKHAEL", "binding result": "no binding"}
    ]},
    {"molecular_target": "the molecule itself", "assay": "blue native gel electrophoresis, self-association (homotrimer)", "description": "Blue native gel electrophoresis (BN-PAGE) of bacterial lysates containing APLE was performed according to the method described by Reisinger and Eichacker (2006), “Analysis of membrane protein complexes by blue native PAGE”, Proteomics 6 Suppl 2, 6-15, with the following modifications. Aliquots containing 200 μg of soluble proteins were diluted with 10 mM Tris/HCl pH 7.4 to a final volume of 95 μl. Five μl of loading buffer was added to the sample before applying them on an 8-16% linear gradient gel. Gradient gels (16×20 cm) were created with the help of a Bio-Rad Gradient Former model 485 (Bio-Rad Laboratories, Vienna, Austria). Electrophoresis was performed at a constant current of 24 mA per gel at 4° C. After electrophoresis, gels were incubated in 0.1 M potassium phosphate buffer, pH 7.0, for 20 min at room temperature. For the in-gel-detection of esterase activity, the substrate fluorescein diacetate (FDA) was dissolved in acetone [4 mg/ml] and applied on a Biodyne® A membrane ([…], 16×20 cm) (Pall Life Science, Michigan, USA). After evaporation of acetone, the membrane was brought in close contact with the gel which was placed on a glass plate. […]\nEsterase activity was visualized herein through staining with fluorescein resulting from hydrolysis of fluorescein diacetate (FDA). […] Multiple bands were excised and analyzed on an SDS-PAGE gel. […]", "values": [
      {"protein": "APLE wild-type (enzyme, Homotrimer on native gel; also called pig liver esterase) GQPASPPVVDTAQGRVLGKYVSLEGLAQPVAVFLGVPFAKPPLGSLRFAPPQPAEPWSFVKNTTSYPPMCCQEPIGGQMLSDLFTNRKERLIPEFSEDCLYLNIYTPADLTKRGRLPVMVWIHGGGLVVGGASTYDGLALAAHENVVVVAIQYRLGIWGFFSTGDEHSRGNWGHLDQVAALHWVQENIANFGGDPGSVTIFGESAGGESVSVLVLSPLAKNLFHRAISESGVAFTAGLVRKDMKAAAKQIAVLAGCKTTTSAVFVHCLRQKSEDELLDLTLKMKFFALDLHGDPRESHPFLTTVVDGVLLPKMPEEILAEKDFNTVPYIVGINKQEFGWLLPTMMGFPLSEGKLDQKTATSLLWKSYPIANIPEELTPVATDKYLGGTDDPVKKKDLFLDLMGDVVFGVPSVTVARQHRDAGAPTYMYEFQYRPSFSSDKKPKTVIGDHGDEIFSVFGFPLLKGDAPEEEVSLSKTVMKFWANFARSGNPNGEGLPHWPMYDQEEGYLQIGVNTQAAKRLKGEEVAFWNDLLSKEAAKKPPKIKHAEL", "binding result": "binds"},
      {"protein": "γPLE wild-type (enzyme, Tested in E. coli cleared lysate; Homotrimer; also called gamma-PLE) GQPASPPVVDTAQGRVLGKYVSLEGLAQPVAVFLGVPFAKPPLGSLRFAPPQPAEPWSFVKNTTSYPPMCCQDPVVEQMTSDLFTNGKERLTLEFSEDCLYLNIYTPADLTKRGRLPVMVWIHGGGLVLGGAPMYDGVVLAAHENVVVVAIQYRLGIWGFFSTGDEHSRGNWGHLDQVAALHWVQENIANFGGDPGSVTIFGESAGGESVSVLVLSPLAKNLFHRAISESGVALTVALVRKDMKAAAKQIAVLAGCKTTTSAVFVHCLRQKSEDELLDLTLKMKFLTLDFHGDQRESHPFLPTVVDGVLLPKMPEEILAEKDFNTVPYIVGINKQEFGWLLPTMMGFPLSEGKLDQKTATSLLWKSYPIANIPEELTPVATDKYLGGTDDPVKKKDLFLDLMGDVVFGVPSVTVARQHRDAGAPTYMYEFQYRPSFSSDKKPKTVIGDHGDEIFSVFGFPLLKGDAPEEEVSLSKTVMKFWANFARSGNPNGEGLPHWPMYDQEEGYLQIGVNTQAAKRLKGEEVAFWNDLLSKEAAKKPPKIKHAEL", "binding result": "binds"}
    ]}
  ]
}
